The labels stand for the following.
T1: FcγRIIb extracellular domain with C-terminal His tag (human, UniProt P31994 43-217)
T1 construct: extracellular domain; also called FcgRIIb; 2b
T1 sequence (looked up): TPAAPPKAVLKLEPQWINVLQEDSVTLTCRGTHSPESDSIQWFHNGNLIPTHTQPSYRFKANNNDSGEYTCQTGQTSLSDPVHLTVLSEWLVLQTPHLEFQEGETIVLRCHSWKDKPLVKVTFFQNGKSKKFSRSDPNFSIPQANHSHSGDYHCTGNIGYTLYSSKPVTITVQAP

B1: GpH7-A5/GpH7-B3 variant L235_20W/GpL16-k0 (antibody, human IgG1, kappa)
heavy 1: not shown
heavy 2: not shown
light: DIVMTQSPLSLPVTPGEPASISCQASESLVHSNRNTYLHWYLQKPGQSPQLLIYKVSNRFSGVPDRFSGSGSGTDFTLKISRVEAEDVGVYYCSQNTHVPPTFGQGTKVEIERTVAAPSVFIFPPSDEQLKSGTASVVCLLNNFYPREAKVQWKVDNALQSGNSQESVTEQDSKDSTYSLSSTLTLSKADYEKHKVYACEVTHQGLSSPVTKSFNRGEC
notes: also called He Ab L235_20W
B2: GpH7-A5/GpH7-B3 variant K326_08L/GpL16-k0 (antibody, human IgG1, kappa)
heavy 1: not shown
heavy 2: not shown
light: B1 light
notes: also called He Ab K326_08L
B3: GpH7-A5/GpH7-B3 variant N325_03V/GpL16-k0 (antibody, human IgG1, kappa)
heavy 1: not shown
heavy 2: not shown
light: B1 light
notes: also called He Ab N325_03V
B4: GpH7-A5/GpH7-B3 variant G237_10E/GpL16-k0 (antibody, human IgG1, kappa)
heavy 1: not shown
heavy 2: not shown
light: B1 light
notes: also called He Ab G237_10E
B5: GpH7-A5/GpH7-B3 variant L328_13S/GpL16-k0 (antibody, human IgG1, kappa)
heavy 1: not shown
heavy 2: not shown
light: B1 light
notes: also called He Ab L328_13S
B6: GpH7-A5/GpH7-B3 variant P238_09D/GpL16-k0 (antibody, human IgG1, kappa)
heavy 1: not shown
heavy 2: not shown
light: B1 light
notes: also called He Ab P238_09D
B7: GpH7-A5/GpH7-B3 variant I332_14T/GpL16-k0 (antibody, human IgG1, kappa)
heavy 1: not shown
heavy 2: not shown
light: B1 light
notes: also called He Ab I332_14T
B8: GpH7-A5/GpH7-B3 variant G237_08L/GpL16-k0 (antibody, human IgG1, kappa)
heavy 1: not shown
heavy 2: not shown
light: B1 light
notes: also called He Ab G237_08L
B9: GpH7-A5/GpH7-B3 variant N325_20W/GpL16-k0 (antibody, human IgG1, kappa)
heavy 1: not shown
heavy 2: not shown
light: B1 light
notes: also called He Ab N325_20W
B10: GpH7-A5/GpH7-B3 variant H268_03V/GpL16-k0 (antibody, human IgG1, kappa)
heavy 1: not shown
heavy 2: not shown
light: B1 light
notes: also called He Ab H268_03V
B11: GpH7-A5/GpH7-B3 variant K326_20W/GpL16-k0 (antibody, human IgG1, kappa)
heavy 1: not shown
heavy 2: not shown
light: B1 light
notes: also called He Ab K326_20W
B12: GpH7-A5/GpH7-B3 variant L234_10E/GpL16-k0 (antibody, human IgG1, kappa)
heavy 1: not shown
heavy 2: not shown
light: B1 light
notes: also called He Ab L234_10E
B13: GpH7-A5/GpH7-B3 variant I336_08L/GpL16-k0 (antibody, human IgG1, kappa)
heavy 1: not shown
heavy 2: not shown
light: B1 light
notes: also called He Ab I336_08L
B14: GpH7-A5/GpH7-B3 variant P238_20W/GpL16-k0 (antibody, human IgG1, kappa)
heavy 1: not shown
heavy 2: not shown
light: B1 light
notes: also called He Ab P238_20W
B15: GpH7-A5/GpH7-B3 variant L235_09D/GpL16-k0 (antibody, human IgG1, kappa)
heavy 1: not shown
heavy 2: not shown
light: B1 light
notes: also called He Ab L235_09D
B16: GpH7-A5/GpH7-B3 variant N325_09D/GpL16-k0 (antibody, human IgG1, kappa)
heavy 1: not shown
heavy 2: not shown
light: B1 light
notes: also called He Ab N325_09D
B17: GpH7-A5/GpH7-B3 variant P238_04F/GpL16-k0 (antibody, human IgG1, kappa)
heavy 1: not shown
heavy 2: not shown
light: B1 light
notes: also called He Ab P238_04F
B18: GpH7-A5/GpH7-B3 variant G237_15Y/GpL16-k0 (antibody, human IgG1, kappa)
heavy 1: not shown
heavy 2: not shown
light: B1 light
notes: also called He Ab G237_15Y
B19: GpH7-A5/GpH7-B3 variant G237_09D/GpL16-k0 (antibody, human IgG1, kappa)
heavy 1: not shown
heavy 2: not shown
light: B1 light
notes: also called He Ab G237_09D
B20: GpH7-A5/GpH7-B3 variant G237_20W/GpL16-k0 (antibody, human IgG1, kappa)
heavy 1: not shown
heavy 2: not shown
light: B1 light
notes: also called He Ab G237_20W
B21: GpH7-A5/GpH7-B3 variant N325_08L/GpL16-k0 (antibody, human IgG1, kappa)
heavy 1: not shown
heavy 2: not shown
light: B1 light
notes: also called He Ab N325_08L
B22: GpH7-A5/GpH7-B3 variant A330_01G/GpL16-k0 (antibody, human IgG1, kappa)
heavy 1: not shown
heavy 2: not shown
light: B1 light
notes: also called He Ab A330_01G
B23: GpH7-A5/GpH7-B3 variant P238_15Y/GpL16-k0 (antibody, human IgG1, kappa)
heavy 1: not shown
heavy 2: not shown
light: B1 light
notes: also called He Ab P238_15Y
B24: GpH7-A5/GpH7-B3 variant G237_19Q/GpL16-k0 (antibody, human IgG1, kappa)
heavy 1: not shown
heavy 2: not shown
light: B1 light
notes: also called He Ab G237_19Q
B25: GpH7-A5/GpH7-B3 variant L234_20W/GpL16-k0 (antibody, human IgG1, kappa)
heavy 1: not shown
heavy 2: not shown
light: B1 light
notes: also called He Ab L234_20W
B26: GpH7-A5/GpH7-B3 variant L235_15Y/GpL16-k0 (antibody, human IgG1, kappa)
heavy 1: not shown
heavy 2: not shown
light: B1 light
notes: also called He Ab L235_15Y
B27: GpH7-A5/GpH7-B3 variant H268_05P/GpL16-k0 (antibody, human IgG1, kappa)
heavy 1: not shown
heavy 2: not shown
light: B1 light
notes: also called He Ab H268_05P
B28: GpH7-A5/GpH7-B3 variant P238_03V/GpL16-k0 (antibody, human IgG1, kappa)
heavy 1: not shown
heavy 2: not shown
light: B1 light
notes: also called He Ab P238_03V

The test addresses T1, FcγRIIb extracellular domain with …. The test can be described thus: SPR (Biacore), relative binding.
As for B1, the He/Con_2b is 147 % of HeCon Ab GpH7-A5/GpH7-B3/GpL16-k0.

As for B2, the He/Con_2b is 177 % of HeCon Ab GpH7-A5/GpH7-B3/GpL16-k0. Then B3, with 111 % of HeCon Ab GpH7-A5/GpH7-B3/GpL16-k0; and B4, with 114 % of HeCon Ab GpH7-A5/GpH7-B3/GpL16-k0; and B5, with 149 % of HeCon Ab GpH7-A5/GpH7-B3/GpL16-k0.

Turning to B6, the He/Con_2b was 221 % of HeCon Ab GpH7-A5/GpH7-B3/GpL16-k0. In the case of B7, the He/Con_2b was 106 % of HeCon Ab GpH7-A5/GpH7-B3/GpL16-k0. In the case of B8 it was 148 % of HeCon Ab GpH7-A5/GpH7-B3/GpL16-k0; in that of B9, 169 % of HeCon Ab GpH7-A5/GpH7-B3/GpL16-k0; in that of B10, 114 % of HeCon Ab GpH7-A5/GpH7-B3/GpL16-k0. Take B11: the He/Con_2b is 148 % of HeCon Ab GpH7-A5/GpH7-B3/GpL16-k0. Then B12, with 118 % of HeCon Ab GpH7-A5/GpH7-B3/GpL16-k0. In the case of B13 it was 107 % of HeCon Ab GpH7-A5/GpH7-B3/GpL16-k0; in that of B14, 123 % of HeCon Ab GpH7-A5/GpH7-B3/GpL16-k0.

B15: the He/Con_2b is 106 % of HeCon Ab GpH7-A5/GpH7-B3/GpL16-k0. For the molecule B16, the He/Con_2b is 124 % of HeCon Ab GpH7-A5/GpH7-B3/GpL16-k0.

In the case of B17, the He/Con_2b is 312 % of HeCon Ab GpH7-A5/GpH7-B3/GpL16-k0. Then B18, with 152 % of HeCon Ab GpH7-A5/GpH7-B3/GpL16-k0; and B19, with 223 % of HeCon Ab GpH7-A5/GpH7-B3/GpL16-k0. In the case of B20 it was 193 % of HeCon Ab GpH7-A5/GpH7-B3/GpL16-k0.

With B21, the He/Con_2b is 197 % of HeCon Ab GpH7-A5/GpH7-B3/GpL16-k0. Then B22, with 104 % of HeCon Ab GpH7-A5/GpH7-B3/GpL16-k0; and B23, with 218 % of HeCon Ab GpH7-A5/GpH7-B3/GpL16-k0. Then B24, with 108 % of HeCon Ab GpH7-A5/GpH7-B3/GpL16-k0; and B25, with 114 % of HeCon Ab GpH7-A5/GpH7-B3/GpL16-k0; and B26, with 149 % of HeCon Ab GpH7-A5/GpH7-B3/GpL16-k0.

B27: the He/Con_2b was 116 % of HeCon Ab GpH7-A5/GpH7-B3/GpL16-k0. B28: the He/Con_2b was 120 % of HeCon Ab GpH7-A5/GpH7-B3/GpL16-k0.

The values above are taken from US20150344570A1 (published 2015).
